Experimental data published in the supplement of paper PMC10065799, “High-throughput profiling of sequence recognition by tyrosine kinases and SH2 domains using bacterial peptide display” (eLife, 2023).

What follows are sequences tested against Hck (UniProt P08631) (assay: phosphorylation enrichment, bacterial display (enrichment ratio); higher = better substrate or ligand; peptides without Tyr show the background).
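Also: 11-residue human phosphosite peptides and single-mutation variants displayed on the E. coli surface, counted by deep sequencing, each peptide's frequency after selection divided by its frequency in the unselected input library; frequency after pTyr selection over input frequency; kinase dosed for 20-30% of maximal phosphorylation in three min.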

Sequence of Hck (P08631 whole entry, looked up): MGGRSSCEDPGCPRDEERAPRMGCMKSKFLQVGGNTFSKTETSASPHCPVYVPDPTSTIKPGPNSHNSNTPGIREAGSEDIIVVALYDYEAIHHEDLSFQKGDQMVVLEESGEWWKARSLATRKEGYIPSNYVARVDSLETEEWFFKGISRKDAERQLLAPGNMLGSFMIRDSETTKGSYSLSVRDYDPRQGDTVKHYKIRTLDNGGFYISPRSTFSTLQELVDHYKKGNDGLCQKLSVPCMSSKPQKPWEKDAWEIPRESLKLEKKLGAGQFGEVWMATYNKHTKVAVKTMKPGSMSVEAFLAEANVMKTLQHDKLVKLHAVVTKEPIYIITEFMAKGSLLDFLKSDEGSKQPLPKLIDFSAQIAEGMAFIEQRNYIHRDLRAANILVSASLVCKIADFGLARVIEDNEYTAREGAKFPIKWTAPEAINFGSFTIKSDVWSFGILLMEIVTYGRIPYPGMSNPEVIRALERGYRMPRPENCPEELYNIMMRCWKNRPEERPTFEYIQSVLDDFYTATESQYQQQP

Row | Sequence | phosphorylation enrichment
1 | SFLFRYADDSF [RAB3C_Y50] | 0.525
2 | RRIHSYRGHLC [VHL_Y112_W117C] | 0.63
3 | KASIMYPSNNC [CXCL11_Y52] | 0.459
4 | SVTCTYSPDLN [TP53_Y126_A129D] | 0.583
5 | QDIMAYRGREV [BCL6_Y157] | 0.448
6 | ALTDNYMFVVI [HAGH_Y61_L64V_YF] | 0.574
7 | PFIDSYEKDVA [PGM1_Y521_L516P_YF] | 0.606
8 | LSSISYVGCSL [ADGRD1_Y571] | 0.747
9 | VFFGSYSRPFG [NKAP_Y104_YF] | 0.479
10 | WSFNLYDINKD [KCNIP3_Y174_A170S] | 1.29
11 | ISISPYPAILH [IFT80_Y588_T586S] | 0.377
12 | ATHSGYRLNDY [CLDN14_Y233] | 0.397
13 | GGSTFYIDTNA [ACTL6A_Y69_P66S_YF] | 0.461
14 | LQEKSYIKGTS [LCTL_Y331] | 0.912
15 | QFLMKYVWSAS [ABCD1_Y337] | 0.587
16 | ECKLLYSQKEG [PTPN11_Y263_R265Q] | 0.682
17 | ADAGMYGVLPW [PLP1_Y207_R205G] | 9.1
18 | KKMKRYHVGKV [HARS2_Y151] | 0.341
19 | TNYSLYLRSLE [MTM1_Y71_R69S] | 0.601
20 | STEAIYWRFSK [SH3PXD2B_Y42_R43W_YF] | 2.51
21 | CNSFQYGGGGG [NPPA_Y151_R150Q] | 0.497
22 | NTFENYWPFFQ [GATM_Y103_K102N_YF] | 5.44
23 | ELPEKYSQNIF [PKP2_Y626_YF] | 0.507
24 | EVEPRYVVLFD [ERCC4_Y577_YF] | 0.505
25 | PEFVVYKPQME [CCRL2_Y170] | 0.883
26 | ALECLYRREKR [TEKT5_Y195_H196R] | 0.515
27 | VSTAVYKRFAS [BEST1_Y148_P152A] | 0.511
28 | GIVEDYRPPVF [ACVRL1_Y421_F425V_YF] | 0.39
29 | STEAIYRRYSK [SH3PXD2B_Y42] | 0.425

Each sequence was assayed against Jak2 (UniProt O60674) in the same assay as above.
Sequence of Jak2 (O60674 whole entry, looked up): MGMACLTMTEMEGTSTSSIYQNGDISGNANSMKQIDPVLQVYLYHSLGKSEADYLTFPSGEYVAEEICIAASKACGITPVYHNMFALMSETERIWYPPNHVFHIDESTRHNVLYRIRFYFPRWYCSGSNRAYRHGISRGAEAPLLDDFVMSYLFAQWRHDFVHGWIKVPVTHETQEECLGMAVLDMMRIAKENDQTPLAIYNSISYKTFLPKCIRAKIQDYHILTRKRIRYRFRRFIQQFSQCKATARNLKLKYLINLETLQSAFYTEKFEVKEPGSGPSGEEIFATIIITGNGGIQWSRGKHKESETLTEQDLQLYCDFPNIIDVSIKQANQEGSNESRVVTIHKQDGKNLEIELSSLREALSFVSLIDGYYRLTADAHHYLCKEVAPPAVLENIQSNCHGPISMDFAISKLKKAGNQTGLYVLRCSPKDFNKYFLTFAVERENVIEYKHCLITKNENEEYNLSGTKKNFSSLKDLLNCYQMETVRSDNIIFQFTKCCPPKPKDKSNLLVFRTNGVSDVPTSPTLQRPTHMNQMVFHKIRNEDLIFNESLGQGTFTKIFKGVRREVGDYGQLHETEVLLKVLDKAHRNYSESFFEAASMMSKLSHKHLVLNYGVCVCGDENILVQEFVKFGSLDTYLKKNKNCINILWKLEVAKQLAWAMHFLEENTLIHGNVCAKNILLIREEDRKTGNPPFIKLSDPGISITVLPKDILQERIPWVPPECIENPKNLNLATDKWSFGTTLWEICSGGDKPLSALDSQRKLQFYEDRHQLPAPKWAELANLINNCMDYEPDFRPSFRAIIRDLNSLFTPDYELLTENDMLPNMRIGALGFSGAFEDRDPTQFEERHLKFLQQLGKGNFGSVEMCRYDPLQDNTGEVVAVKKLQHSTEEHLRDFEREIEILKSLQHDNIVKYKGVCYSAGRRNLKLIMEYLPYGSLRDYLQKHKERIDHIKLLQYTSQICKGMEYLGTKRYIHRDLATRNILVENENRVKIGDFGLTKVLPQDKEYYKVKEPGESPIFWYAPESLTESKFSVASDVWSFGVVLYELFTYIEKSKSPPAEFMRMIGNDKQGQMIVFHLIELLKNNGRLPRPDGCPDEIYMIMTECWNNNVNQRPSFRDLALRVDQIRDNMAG

Row | Sequence | phosphorylation enrichment
30 | SFLFRYADDSF [RAB3C_Y50] | 0.835
31 | RRIHSYRGHLC [VHL_Y112_W117C] | 0.821
32 | KASIMYPSNNC [CXCL11_Y52] | 0.604
33 | SVTCTYSPDLN [TP53_Y126_A129D] | 1.31
34 | QDIMAYRGREV [BCL6_Y157] | 0.937
35 | ALTDNYMFVVI [HAGH_Y61_L64V_YF] | 1.3
36 | PFIDSYEKDVA [PGM1_Y521_L516P_YF] | 0.594
37 | LSSISYVGCSL [ADGRD1_Y571] | 0.871
38 | VFFGSYSRPFG [NKAP_Y104_YF] | 1.12
39 | WSFNLYDINKD [KCNIP3_Y174_A170S] | 1.12
40 | ISISPYPAILH [IFT80_Y588_T586S] | 0.765
41 | ATHSGYRLNDY [CLDN14_Y233] | 0.706
42 | GGSTFYIDTNA [ACTL6A_Y69_P66S_YF] | 1.01
43 | LQEKSYIKGTS [LCTL_Y331] | 0.595
44 | QFLMKYVWSAS [ABCD1_Y337] | 1.42
45 | ECKLLYSQKEG [PTPN11_Y263_R265Q] | 0.986
46 | ADAGMYGVLPW [PLP1_Y207_R205G] | 0.637
47 | KKMKRYHVGKV [HARS2_Y151] | 0.554
48 | TNYSLYLRSLE [MTM1_Y71_R69S] | 1.29
49 | STEAIYWRFSK [SH3PXD2B_Y42_R43W_YF] | 1.29
50 | CNSFQYGGGGG [NPPA_Y151_R150Q] | 0.716
51 | NTFENYWPFFQ [GATM_Y103_K102N_YF] | 3.43
52 | ELPEKYSQNIF [PKP2_Y626_YF] | 1.09
53 | EVEPRYVVLFD [ERCC4_Y577_YF] | 1.11
54 | PEFVVYKPQME [CCRL2_Y170] | 1.82
55 | ALECLYRREKR [TEKT5_Y195_H196R] | 0.788
56 | VSTAVYKRFAS [BEST1_Y148_P152A] | 0.725
57 | GIVEDYRPPVF [ACVRL1_Y421_F425V_YF] | 0.625
58 | STEAIYRRYSK [SH3PXD2B_Y42] | 0.534

What follows are sequences tested against MERTK (UniProt Q12866) in the same assay as above.
Sequence of MERTK (Q12866 whole entry, looked up): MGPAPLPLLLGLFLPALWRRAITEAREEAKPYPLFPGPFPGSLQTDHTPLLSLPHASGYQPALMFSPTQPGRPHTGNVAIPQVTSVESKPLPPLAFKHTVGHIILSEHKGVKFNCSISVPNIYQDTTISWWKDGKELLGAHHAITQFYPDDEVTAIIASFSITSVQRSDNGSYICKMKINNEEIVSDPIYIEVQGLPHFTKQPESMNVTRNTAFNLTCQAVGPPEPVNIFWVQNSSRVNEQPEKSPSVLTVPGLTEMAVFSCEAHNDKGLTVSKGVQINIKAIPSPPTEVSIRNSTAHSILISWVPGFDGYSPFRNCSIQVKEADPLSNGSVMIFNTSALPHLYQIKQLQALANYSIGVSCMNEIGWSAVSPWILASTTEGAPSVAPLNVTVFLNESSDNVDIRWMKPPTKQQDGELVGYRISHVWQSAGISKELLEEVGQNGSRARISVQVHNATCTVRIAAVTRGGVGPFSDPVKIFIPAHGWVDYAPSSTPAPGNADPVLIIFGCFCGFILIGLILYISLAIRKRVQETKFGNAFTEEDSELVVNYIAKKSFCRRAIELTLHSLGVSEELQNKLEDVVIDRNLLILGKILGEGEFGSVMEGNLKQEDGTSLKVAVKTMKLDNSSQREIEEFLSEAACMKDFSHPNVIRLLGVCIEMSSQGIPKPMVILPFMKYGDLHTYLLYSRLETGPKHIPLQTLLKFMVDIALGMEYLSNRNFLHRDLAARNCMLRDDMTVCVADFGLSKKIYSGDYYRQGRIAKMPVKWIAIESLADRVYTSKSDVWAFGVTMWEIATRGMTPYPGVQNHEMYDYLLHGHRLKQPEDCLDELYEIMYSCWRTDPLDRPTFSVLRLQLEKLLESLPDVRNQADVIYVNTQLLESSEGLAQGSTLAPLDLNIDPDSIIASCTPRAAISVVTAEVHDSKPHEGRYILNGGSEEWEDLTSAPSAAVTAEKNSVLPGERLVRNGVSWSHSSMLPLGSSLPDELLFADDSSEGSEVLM

Row | Sequence | phosphorylation enrichment
59 | SFLFRYADDSF [RAB3C_Y50] | 0.45
60 | RRIHSYRGHLC [VHL_Y112_W117C] | 0.828
61 | KASIMYPSNNC [CXCL11_Y52] | 0.368
62 | SVTCTYSPDLN [TP53_Y126_A129D] | 0.437
63 | QDIMAYRGREV [BCL6_Y157] | 0.599
64 | ALTDNYMFVVI [HAGH_Y61_L64V_YF] | 1.52
65 | PFIDSYEKDVA [PGM1_Y521_L516P_YF] | 0.378
66 | LSSISYVGCSL [ADGRD1_Y571] | 0.541
67 | VFFGSYSRPFG [NKAP_Y104_YF] | 0.777
68 | WSFNLYDINKD [KCNIP3_Y174_A170S] | 0.796
69 | ISISPYPAILH [IFT80_Y588_T586S] | 0.354
70 | ATHSGYRLNDY [CLDN14_Y233] | 0.393
71 | GGSTFYIDTNA [ACTL6A_Y69_P66S_YF] | 0.477
72 | LQEKSYIKGTS [LCTL_Y331] | 0.609
73 | QFLMKYVWSAS [ABCD1_Y337] | 0.528
74 | ECKLLYSQKEG [PTPN11_Y263_R265Q] | 0.494
75 | ADAGMYGVLPW [PLP1_Y207_R205G] | 6.35
76 | KKMKRYHVGKV [HARS2_Y151] | 0.43
77 | TNYSLYLRSLE [MTM1_Y71_R69S] | 0.602
78 | STEAIYWRFSK [SH3PXD2B_Y42_R43W_YF] | 1.32
79 | CNSFQYGGGGG [NPPA_Y151_R150Q] | 0.447
80 | NTFENYWPFFQ [GATM_Y103_K102N_YF] | 5.46
81 | ELPEKYSQNIF [PKP2_Y626_YF] | 0.538
82 | EVEPRYVVLFD [ERCC4_Y577_YF] | 4.21
83 | PEFVVYKPQME [CCRL2_Y170] | 0.972
84 | ALECLYRREKR [TEKT5_Y195_H196R] | 0.621
85 | VSTAVYKRFAS [BEST1_Y148_P152A] | 0.489
86 | GIVEDYRPPVF [ACVRL1_Y421_F425V_YF] | 0.445
87 | STEAIYRRYSK [SH3PXD2B_Y42] | 0.466

These sequences were tested on c-Abl (mouse) in the same assay as above.

Row | Sequence | phosphorylation enrichment
88 | SFLFRYADDSF [RAB3C_Y50] | 0.582
89 | RRIHSYRGHLC [VHL_Y112_W117C] | 0.534
90 | KASIMYPSNNC [CXCL11_Y52] | 0.518
91 | SVTCTYSPDLN [TP53_Y126_A129D] | 0.915
92 | QDIMAYRGREV [BCL6_Y157] | 0.536
93 | ALTDNYMFVVI [HAGH_Y61_L64V_YF] | 0.99
94 | PFIDSYEKDVA [PGM1_Y521_L516P_YF] | 0.51
95 | LSSISYVGCSL [ADGRD1_Y571] | 0.79
96 | VFFGSYSRPFG [NKAP_Y104_YF] | 1.02
97 | WSFNLYDINKD [KCNIP3_Y174_A170S] | 0.68
98 | ISISPYPAILH [IFT80_Y588_T586S] | 0.557
99 | ATHSGYRLNDY [CLDN14_Y233] | 0.556
100 | GGSTFYIDTNA [ACTL6A_Y69_P66S_YF] | 0.734
101 | LQEKSYIKGTS [LCTL_Y331] | 0.723
102 | QFLMKYVWSAS [ABCD1_Y337] | 0.929
103 | ECKLLYSQKEG [PTPN11_Y263_R265Q] | 0.724
104 | ADAGMYGVLPW [PLP1_Y207_R205G] | 3.07
105 | KKMKRYHVGKV [HARS2_Y151] | 0.482
106 | TNYSLYLRSLE [MTM1_Y71_R69S] | 0.574
107 | STEAIYWRFSK [SH3PXD2B_Y42_R43W_YF] | 7.78
108 | CNSFQYGGGGG [NPPA_Y151_R150Q] | 0.731
109 | NTFENYWPFFQ [GATM_Y103_K102N_YF] | 1.22
110 | ELPEKYSQNIF [PKP2_Y626_YF] | 0.605
111 | EVEPRYVVLFD [ERCC4_Y577_YF] | 0.777
112 | PEFVVYKPQME [CCRL2_Y170] | 1.42
113 | ALECLYRREKR [TEKT5_Y195_H196R] | 0.522
114 | VSTAVYKRFAS [BEST1_Y148_P152A] | 0.716
115 | GIVEDYRPPVF [ACVRL1_Y421_F425V_YF] | 0.63
116 | STEAIYRRYSK [SH3PXD2B_Y42] | 0.709
